In the test the target is LexA BD-HRt (mouse). The experiment in a line: yeast two-hybrid library screen; number of positive clones with this identity.
LexA BD-HRt (mouse), sequence (P0A7C2 other isoform, or with tags, fused parts or gaps limits assumed): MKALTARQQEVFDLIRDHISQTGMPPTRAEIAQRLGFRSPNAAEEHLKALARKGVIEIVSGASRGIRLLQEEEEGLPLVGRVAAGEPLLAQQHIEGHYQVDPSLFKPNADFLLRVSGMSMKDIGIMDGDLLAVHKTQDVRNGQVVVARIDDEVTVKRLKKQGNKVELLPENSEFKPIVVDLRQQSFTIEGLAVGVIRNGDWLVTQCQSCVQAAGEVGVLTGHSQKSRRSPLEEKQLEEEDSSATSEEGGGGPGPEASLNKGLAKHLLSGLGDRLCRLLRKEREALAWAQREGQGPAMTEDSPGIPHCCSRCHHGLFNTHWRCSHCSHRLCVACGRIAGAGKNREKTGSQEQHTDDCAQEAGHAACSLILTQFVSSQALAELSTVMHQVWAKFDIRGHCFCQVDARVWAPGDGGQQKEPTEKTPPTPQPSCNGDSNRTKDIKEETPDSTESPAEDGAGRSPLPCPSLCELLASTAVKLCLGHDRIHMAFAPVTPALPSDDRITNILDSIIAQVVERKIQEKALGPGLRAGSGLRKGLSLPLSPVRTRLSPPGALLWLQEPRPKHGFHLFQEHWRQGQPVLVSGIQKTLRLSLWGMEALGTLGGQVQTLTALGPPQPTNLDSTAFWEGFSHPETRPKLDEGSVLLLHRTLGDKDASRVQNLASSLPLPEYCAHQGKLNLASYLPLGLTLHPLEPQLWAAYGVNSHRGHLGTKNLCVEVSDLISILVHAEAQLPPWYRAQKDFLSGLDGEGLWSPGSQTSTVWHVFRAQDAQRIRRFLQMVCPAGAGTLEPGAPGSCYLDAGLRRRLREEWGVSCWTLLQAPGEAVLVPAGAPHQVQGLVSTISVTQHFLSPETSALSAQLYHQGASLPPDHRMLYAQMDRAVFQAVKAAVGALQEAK

With “Homo Sapiens HIC Protein Isoform P32 and Isoform 40 (from UniProt Q9P1T7 1-246)”, the Hits was found to be 1.

(Values after patent US20050106141A1, “Hairless protein-interacting partner complexes and methods thereof for the beautification and/or improvement of mammalian skin” (The Procter & Gamble Company, priority 2003, published 2005).)
